We go through twelve sequences from the DeepSol protein solubility set.

The nature of the data set: soluble on expression in E. coli; label from the status in PepcDB or PDB records.
With “MMMKSLLMTPLSHRVLKLFCRQTDQRFQKQKNALQQVQREKLQQILKISTLAQAAGVTDYEQFRQQFPVTRYTHWRDRIHECRAQQSTLSNSKLVRYQPTSGSSEQIKFIPYTQAFLDELDAAIAPWLSSMYRKCSTLGQGTHYWSVSWLPESQREVLKNENLNDDSALLGVGKRLLSKFTQTVPSDVSFAAHADDALFATLCYLVADQDLAMISVWSPTFALQLLEKLTEQSHEIALVLETGQWQTRAASLKGVKAPYNSARASLLRQLMKKDTLDYQQLWPKLSLVSSWDTAGSKQWAQLLQSELPFAQFEGKGLWATEGVVTIPYDDLYPLAYHSHFYEFEYLAGEHQGDIIPSWQLKLNDLVSPVLTSGNGLLRYCLDDCLRVTGFYGQVPCFEFQGRRFGVDLVGEKLSPEVAHKLLTRLNQQHIQAISLFAVDTQQQAKPFYAVLVEGEATSPLSVDEIDQALREHFHYELARDLGQLDQPQIFYVDNGWEGYKQVVVREGMIEGNIKPEPLKKVTLSSLEQLSCAESV”, the “soluble on expression in E. coli” value is recorded as “not soluble”. To “GMEKKSSYKTVLLGESSVGKSSIVLRLTKDTFHENTNTTIGASFCTYVVNLNDINIKNNSNNEKNNNINSINDDNNVIITNQHNNYNENLCNIKFDIWDTAGQERYASIVPLYYRGATCAIVVFDISNSNTLDRAKTWVNQLKISSNYIIILVANKIDKNKFQVDILEVQKYAQDNNLLFIQTSAKTGTNIKNIFYMLAEEIYKNIIN” belongs “soluble”.

Turning to “MRLYINEIKIKDDILYCYTEDSIKGLSEVGQMLVDSDNYAFAYTLDDGKAYAYLIFVQETWTMLHENTTKKIIINDELELTEFHQELTYILDNIKGNNNYGKEFVATVEETFDIE”, the “soluble on expression in E. coli” value is given as “not soluble”.

Consider “MAHHHHHHMTTLEKQLQSSTLSKQCRADLLNHVEEVETNSRRLPKKMITLPDPNLPSAVTMPTDNSVKRGTRSATAGANMARSLHYTTRKREKDEMVASRITSDRNLSGTYFKDCSHKFVNGARSWSDPFRSSRSRTALSGKDMDFVYRYAEAATGSAIERPQPADDASVAATAAYRKAFRQYKGRDPTAKEMEEAGRLVYAFDENCSVGVLQKPHSCYPHTHISAVKTHIRACPNQVYLPEVPPVRAARSEFPGPIPTWSSTKRTTTMATNGTYRPGHHQAKSLKWEAVSTVVGSR”, for which the “soluble on expression in E. coli” value is reported as “not soluble”. The same measure for “MTQLKTQYPSLIIDASFITLAANATVKPQDKTYNTVNLLNRFFLIWLDVASRGLSHHHVLSHPFKDWMTNMLDFPYHHEFIEFLGRWTHILIALPKRHHGQVDTAIPRYLLVTIREKTGIVKLTTVQNTAFTTQSNQLKKQYGQFLLTESNNCCACPGCDRPLILTSGNLAAENYEVSAIEKDKDAEALNLIALCPDGFLTYQADRRKKIVTTLKNVKKILVSAHNSQQAISDMKLDSGIVSVLTSLNKLKCDEYNISYDSKQLTDKISPENNRTLYQLVKNQVIDNYLTIQKIIVNLDKQGKIDYEKIQYQTRSMYKKLKAAKHNNLAIFNTISEKLHLATLQDIYFCQMIVSYFIQKCEVLE”: “not soluble”; for “MSDFMSNTAALQLLHNAVKSYEREVANFFAANEKATSKYTGRFDFRQFAKKMFDPIPTAQLGQLYIEMLEESHIYMHSHQKSRVGANGYPHSFVSVPELLLNMILAYQLPQQRFVPAEKMEEDGGKVEEDGGAGGAGGSRKKRRNSAARKGKNVTINPRVVLGNELAAKLLEEMLKIPLAPESKQWKTAKYVLCPSSCPQQMEVFGEIIAKNTKSGLISFNALNYFMHDPILNRYLDDPITILHALYIGPLQAPTVELFATNRTDVFRQRCREVLRIALHASKDPMTFTYSVPEFIDKNHPDRCSYRDFVETVTQLIRDLNGEHQGSTAIHTGWACAAIKKFGQKRYVDKTWKDENYYDLIWTVLAQRPHLKKFVVDVLEKNFKDLDAARFWRRMQPYQMNPTVIFNQNVIIVDPLQPTDEFLNFPPTVRHIQMVTNEKEIRDLQMLLEYKVSREEKIYVGVDAEWSAYVSPSKATILQMSLHDCIYIIDLESYQISPQSYHHVLSYLFETPEIVKIGFQFGEDLHQLRAAFRNCVALYRPNNVVCVGKLIMDLMDEIGKLENCDDFRKEWLPHLTDNETSSAANSSVEEQANETIDTNESMDEGDGGGSGIVVKKEESVKQQFLNKGLSFICEKLLGRPLDKTEQCSVWDRRPLRCLQLRYAAMDAYCMLLLYEKCATIFAKLGINVNDFVSKQSPIRISLPLLSEEKL”: “not soluble”. Consider “MFSYSSSDWQRRFDEPEKPSRIIAHHDERGPFAKDRARVLHSAALRRLADKTQVVGPRDGDNPRTRLTHSLEVAQIARGIGTGLGLDADLCEMAGLTHDIGHPPYGHNGEKALAEIAQDCGGFEGNAQTLRILSKLEPKIVDDHDQSYGLNLTRAALDAACKYPRTKTNPDGSVNKKYGCYDEDAHILQWVRQGHEDTSACVEAQAMDFSDDIAYSVHDVEDGIVSGRVHLGVLWDFVELAELAEKGARAFGGTPEALVDAADHLRELPIISAAADFDGSLRGYVDLKAMTSQLVGRYVGAVIEASRAANPTGVFGRSTGQVVVPDQVLAEVTLLKTIAVLYVMDDPTHRQRQDRQRERIYRVYDYLVAGGRGALDPMFRLWWEQAESEAQRQRVIIDNISSMTESRLERVAKQSAELSSFMG”, for which the “soluble on expression in E. coli” value is “not soluble”. Take “MGSDKIHHHHHHMMGGEFTLTEREAEYLFRIIDSSINIFRRHQFFLWAQGELQGLLPHGMLICLFDEGNGQAVNIERFSRTDMDEIRFSELCRPDGGIVFRAMSAWSAGKNQPLLVCPNNSHTPTYKRFSNDLKRENLQRIAAHGMFDTNGRTTCFFTFTQISAALSERHAYFLELLMPHMHMALVRMLFHERHHKQGAVGERSRKLITDRETEILRHVQAGKSNHEIAQLLYISPLTVKNHIQKILKKLDVNNRAHAVAKAMALKITL”: the “soluble on expression in E. coli” value is listed as “not soluble”. “MGSDKIHHHHHHMGEEIAISLKNVSKCFKRYSRPVDRLKEVLLPGKSRTDEFWALRDINIEIPKGQTVGIVGRNGSGKSTLLQIIVGTLTPSSGDVRVVGRVSALLELGSGFNPEFTGRQNVFFNGQLLGLSQKQIEDRFDDIVAFADIGDFIEQPVKTYSSGMYVRLAFSVAVNVDPEILIVDEALAVGDVVFQHRCMRRMRAMMDSGVTTLFVSHDSGAIKTLCNSAVMIHDGKIHTTGLPNTVIIEYLKLVTELELGLAQDITVNSQQQVNPVVDNAIQASDSPNFDIESPSSNFSKATRRGSGKARIESVKILNQLGHYAGESPIFAFNEEVTLIVNLKVYYTIKSCIVGFHVCDKNGNEVIGSNTLEENIKIDKLESGEEIEIKFKFNLPLRPSSYSLTVAGAESYESLSFDWIDNIMVFQILPPDTGKLIHALVHQPMVVKVNKKVLPTVVTPA”: the “soluble on expression in E. coli” value was “not soluble”. “MVLSVVVVGKPRCRSIAVAARERLHRYGEYPMSSNNASGKVVSVDEQAFENAGEQAADEDGFPVVDETPEFEAAVEQETQAKVDANHPDGIADTSEDRIHGVTLEQEERIRAREAELERISAQAELGTQDGREQRTRDIAAKRSAVRRAEFQTRAASVDPMADPERDDPRAELTQEQLAAVNKQSMRLAEKLDGWSRAAIGRRLGEAVVGGKDVTSAVVGVFEELQTAPGTVIPIGKLEDVNRKEVSIEGTVTRLWKPSSAAISQVGLIEDESGKTKFTSWVASEQPWIEEGEHVRIHGAAKNWYNGRVSVALTGWSTVHFPERGRWWEALEHHHHHH”: the “soluble on expression in E. coli” value is recorded as “not soluble”. Take “STGKKPKHHVLSHDIIPASKPIAEKLQIQPESPVVELKRILYNDDQPLTFEVTHYPLDLFPGIDTFIADGVSMHDILKQQYKVVPTHNTKLLNVVYAQQEESKYLDCDIGDALFEIDKTAFTSNDQPIYCSLFLMHTNRVT”: the “soluble on expression in E. coli” value was “not soluble”. For “MNSEALDNFEAPRFRPPDEPRMMKNYTTQFSPLDTPPPMNGTPPIAGMHHYLTDPDPSREMMDLPANISNFGRDDASLVLPANLMGGADTSLPNIDRYKMDLPSEIYPNDPMPRGISTPPMNMKFNLGENIGRDVDRGVMNGFGAERQYQDPMIEIEQNLGNIRFESGNEKIKATITKFDEDYYGNEICAQCQAEDAYMDRMRRQAEEERRKYEETMKRAKMYEDLTREKEETFKREEAERNKALRDHVDRVNAEMIEMKKRRPKSPVLENYIFRHESPRSRDVEVRTRKDAYRAELDRQVEEKRLRRIAEFEKNEAIDATSNARAALEFANAREAERKSIEHAKEMARKQLEFQMEMSRVGAPSDKNWLWWAERPDEHGWRDARLKGLKHTNQVERNQTFKQSIGMLEEFKARQAHDDMVMRDNRRAKYDKLRDQLHENSKMLYPLTKTESRPIIVQPDPRVEAAWREAHEKYDRKFAVLQDNAMKSISGAALDGVAHATTSCRRCARCARPMERKTTLFVNRGETILPHQANWHS”, the “soluble on expression in E. coli” value is “not soluble”.
